Laboratory results published in patent US20210095024A1 (Janssen / Centocor, published 2021).

T1: recombinant CEACAM5 (R&D Systems #4128-CM) (human, UniProt P06731 35-685)
T1 construct: Bought protein
T1 sequence: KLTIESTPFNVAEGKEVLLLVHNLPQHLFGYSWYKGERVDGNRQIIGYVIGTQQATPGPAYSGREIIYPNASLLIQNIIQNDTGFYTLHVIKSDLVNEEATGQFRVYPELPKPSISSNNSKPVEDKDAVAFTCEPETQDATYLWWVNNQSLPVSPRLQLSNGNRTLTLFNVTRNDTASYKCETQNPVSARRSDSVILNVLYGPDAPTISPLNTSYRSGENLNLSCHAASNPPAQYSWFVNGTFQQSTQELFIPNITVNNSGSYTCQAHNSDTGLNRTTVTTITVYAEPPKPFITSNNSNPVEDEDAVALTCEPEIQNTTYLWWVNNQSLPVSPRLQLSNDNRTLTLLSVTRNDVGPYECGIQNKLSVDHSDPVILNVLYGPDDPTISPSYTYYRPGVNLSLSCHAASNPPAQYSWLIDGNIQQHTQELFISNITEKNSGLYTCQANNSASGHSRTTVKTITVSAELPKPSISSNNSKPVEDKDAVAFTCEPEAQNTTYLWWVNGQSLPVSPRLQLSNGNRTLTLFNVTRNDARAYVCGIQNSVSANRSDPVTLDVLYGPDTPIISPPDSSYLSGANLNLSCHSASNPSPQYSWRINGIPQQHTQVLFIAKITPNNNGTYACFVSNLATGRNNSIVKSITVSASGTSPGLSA

T2: CEACAM6 overexpressed on HEK293T cells (human, UniProt P40199 35-320)
T2 construct: also called CEACAM6 expressing HEK293T cells
T2 sequence: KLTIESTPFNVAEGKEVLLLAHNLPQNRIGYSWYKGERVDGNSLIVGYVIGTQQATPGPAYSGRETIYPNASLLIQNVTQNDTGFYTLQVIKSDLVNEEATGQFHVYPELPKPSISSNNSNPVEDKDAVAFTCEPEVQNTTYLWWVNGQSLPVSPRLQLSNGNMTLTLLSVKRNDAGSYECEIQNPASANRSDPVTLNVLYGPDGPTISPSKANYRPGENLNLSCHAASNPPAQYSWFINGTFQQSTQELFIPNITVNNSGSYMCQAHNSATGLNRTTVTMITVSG

T3: recombinant CEACAM6 (R&D Systems #3934-CM) (human, UniProt P40199 35-320)
T3 construct: Bought protein
T3 sequence: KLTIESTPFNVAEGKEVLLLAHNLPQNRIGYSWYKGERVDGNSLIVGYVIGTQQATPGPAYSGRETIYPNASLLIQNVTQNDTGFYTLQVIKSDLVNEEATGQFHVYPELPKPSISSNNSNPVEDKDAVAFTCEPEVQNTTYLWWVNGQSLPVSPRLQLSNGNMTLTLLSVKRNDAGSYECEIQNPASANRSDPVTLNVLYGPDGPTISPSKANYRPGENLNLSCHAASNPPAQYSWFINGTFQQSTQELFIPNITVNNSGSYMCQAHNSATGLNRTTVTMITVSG

T4: full length CEACAM1 overexpressed on HEK293T cells (human, UniProt P13688 35-526)
T4 construct: also called CEACAM-1 expressing HEK293T cells
T4 sequence: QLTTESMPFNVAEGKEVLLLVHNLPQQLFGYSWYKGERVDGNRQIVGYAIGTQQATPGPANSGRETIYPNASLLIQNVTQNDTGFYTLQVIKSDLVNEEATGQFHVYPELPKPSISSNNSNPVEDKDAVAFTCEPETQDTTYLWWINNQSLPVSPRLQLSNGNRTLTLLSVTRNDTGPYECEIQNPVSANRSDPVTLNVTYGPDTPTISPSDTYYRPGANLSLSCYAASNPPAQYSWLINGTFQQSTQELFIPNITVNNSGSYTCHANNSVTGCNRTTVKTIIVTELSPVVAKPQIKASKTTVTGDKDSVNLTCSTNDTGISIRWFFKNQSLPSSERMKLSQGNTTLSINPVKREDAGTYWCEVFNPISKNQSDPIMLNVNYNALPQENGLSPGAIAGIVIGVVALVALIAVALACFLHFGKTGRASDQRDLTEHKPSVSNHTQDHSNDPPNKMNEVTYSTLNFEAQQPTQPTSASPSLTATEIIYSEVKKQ

T5: CEACAM5 overexpressed on HEK293T cells (human, UniProt P06731 35-685)
T5 construct: also called CEACAM5 expressing HEK293T cells
T5 sequence: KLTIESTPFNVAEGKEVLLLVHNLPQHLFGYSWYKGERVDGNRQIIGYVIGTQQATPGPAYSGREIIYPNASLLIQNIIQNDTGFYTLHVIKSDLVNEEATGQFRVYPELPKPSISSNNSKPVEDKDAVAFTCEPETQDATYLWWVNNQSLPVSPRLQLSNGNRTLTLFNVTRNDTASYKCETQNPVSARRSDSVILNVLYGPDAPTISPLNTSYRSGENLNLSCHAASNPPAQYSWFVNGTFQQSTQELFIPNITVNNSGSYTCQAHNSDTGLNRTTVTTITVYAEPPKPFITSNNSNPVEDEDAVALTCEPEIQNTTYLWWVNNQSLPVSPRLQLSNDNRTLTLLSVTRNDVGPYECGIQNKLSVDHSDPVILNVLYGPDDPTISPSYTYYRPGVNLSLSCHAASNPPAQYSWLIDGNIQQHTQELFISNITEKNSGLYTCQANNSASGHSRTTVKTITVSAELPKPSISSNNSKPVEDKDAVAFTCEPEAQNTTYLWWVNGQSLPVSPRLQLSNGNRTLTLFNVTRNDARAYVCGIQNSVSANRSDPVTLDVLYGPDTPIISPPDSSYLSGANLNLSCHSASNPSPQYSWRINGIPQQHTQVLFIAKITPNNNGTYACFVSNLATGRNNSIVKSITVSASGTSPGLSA


Key:
[1] = biological target: T1, recombinant CEACAM5 (R&D Systems …); assay: ELISA, plate-coated recombinant CEACAM5
Method: (§1) Plates were coated with 50 μl of 1 μg/ml of CEACAM1 (#2244-CM, R&D Systems) overnight at 4° C. The next day, in 16 h, plates were blocked with 200 μl 0.4% bovine serum albumin (BSA) (Sigma, A9647) in PBS for 1 hr at room temperature. Plates were washed once with 300 μl of 0.02% Tween-20 in PBS on a Biotek plate washer. 1/2 log dilutions of CEACAM mAbs starting from 10 μg/ml to 0.0001 ug/ml in 0.4% BSA, or PBS only, were plated for each antibody. 50 μl of each dilution were added to coated plates. Plates were incubated at room temp for approx 30 min. Plates were then washed 3 times with 300 μl of 0.02% Tween-20 in PBS using a Biotek plate washer. […] Plates were incubated at room temp for approximately 30 min. Plates were then washed 3 times with 300 ul of PBS/0.02% Tween-20 on a Biotek plate washer. 50 μl of 3,3′,5,5′-Tetramethylbenzidine (TMB, Sigma T0440) were added, allowed for color development, followed by adding 50 ul of 4N H₂SO₄. Plates were analyzed at 450 nm using EnVision Microplate Reader (PerkinElmer). Isotype control (CNT08939 antibody, specific to RSV virus, having the human IgG2 sigma backbone) was plated on last 3 plates at a concentration 10 μg/ml. Absorbance at 450 nm (FIG. 2) was analyzed using XY scatter plots and non-linear fit curves were generated after log transformation, and EC50 values were calculated, using GraphPad Prism (GraphPad Software, San Diego, Calif.). For several antibodies the EC50 could not be calculated using GraphPad Prism due to poor curve fit; in these cases the EC50 values were visually estimated at the midpoint of the available curve. EC50 values for binding to recombinant CEACAM1 are represented in Table 1.
(§2) 3.1 Binding to recombinant CEACAM5 and CEACAM6. Cross-screening for specificity of purified phage and hybridoma antibodies to recombinant CEACAM5 (R&D Systems #4128-CM) and CEACAM6 (R&D Systems #3934-CM) was performed using ELISA, according to the protocol described in Example 2. Binding curves for binding of mAbs to CEACAM5 are shown on FIG. 5a, and to CEACAM6 on FIG. 5b.

[2] = biological target: T2, CEACAM6 overexpressed on HEK293T cells; assay: flow cytometry on HEK293T cells overexpressing CEACAM6
[3] = biological target: T3, recombinant CEACAM6 (R&D Systems …); assay: ELISA, plate-coated recombinant CEACAM6
Method: as §1, §2

[4] = biological target: T4, full length CEACAM1 overexpressed on …; assay: flow cytometry on HEK293T cells overexpressing CEACAM1
Text: CEACAM1 overexpressing cells were then subcloned and sorted for purified populations of CEACAM1 positive cells, using standard techniques (FIG. 3). These cells were then used to generate binding curves by flow cytometry (FIG. 4).

[5] = biological target: T5, CEACAM5 overexpressed on HEK293T cells; assay: flow cytometry on HEK293T cells overexpressing CEACAM5

Row | Binder | EC50 [1] | binding result [2] | EC50 [3] | EC50 [2] | EC50 [4] | binding result [5]
1 | CCMB02.004 (antibody, V domains shown, also called mAb 1) VH: EVQLLESGGGLVQPGGSLRLSCAASGFTFINYAMNWVRLTPGKGLEWVSVISGSGSGTYYADSVKGRFTVSRDNSKNTLYLQMNSLRVEDTAIYYCASPPPMVRGVIITIGNYWGQGALVTVSS VL: not shown | 50 µg/mL | no binding |  |  |  | 
2 | CCMB07.004 (antibody, V domains shown, also called mAb 4) VH: EVQLLESGGGLVQPGGSLRLSCAASGFTFTNYAMNWVRLAPGKGLEWVSVISGSGSGTYYADSVKGRFTVSRDNSKNTLYLQMNSLRVEDTAIYYCASPPPMVRGVIITIGNYWGQGALVTVSS VL: EIVMTQSPATLSVSPGERATLSCRASQSVSVNLAWYQQKPGQAPRLLIYGASTRATSIPTRFSGSGSGTEFTLTISSLQSEDFAVYYCQQYNNWPFTFGPGTKVEIK | 9.77 µg/mL | no binding |  |  |  | 
3 | CCMB09.004 (antibody, V domains shown, also called mAb 5) VH: QVQLQESGPGLVKPSQTLSLTCTVTGDSIRSGGHYWSWIRQHPGKGLEWIGNIYYSGSTHYNPSLKSRLTISVDTSKNQFSLKVSSVTAADTAVYYCARGRLLWFGEPQDFQHWGQGTLVTVSS VL: not shown | 4.46 µg/mL |  | 5.13 µg/mL | 0.0158 µg/mL |  | 
4 | CCMB23.004 (antibody, V domains shown, also called mAb 8) VH: QLQLQESGPGLVKPSETLSLTCTVSADSISRTSYYWGWIRQPPGKGLEWIGTIYYSGSTYYNPSLKSRVTISVDTSRNHFSLTLNSVTAADTAVYYCARQIAVGAHRFDYWGQGTLVTVSS VL: DIQLTQSPSFLSASVGDRVTITCRASQGISSYLAWYQQKPGKAPKLLIYAASTLQSGVPSRFSGSGSGTEFTLTISSLQPEDFATYYCQQLNSYPWTFGQGTKVEIK |  | no binding |  |  | 0.00419 µg/mL | no binding
5 | CCMB18.004 (antibody, V domains shown, also called mAb 6) VH: QVQLVQSGSELKKPGASVKVSCKASGYTLTDYGMNWVRQAPGQGLQWMGWINTNTGNPTYAQGFTGRFVFSLDTSVSTAYLQISSLKTEDTAVYYCARKAIWGWFDPWGQGTLVTVSS VL: not shown | 4.32 µg/mL |  | 6.05 µg/mL | 0.0118 µg/mL |  | 
6 | CCMB03.004 (antibody, V domains shown, also called mAb 2) VH: QVQLVQSGSELRTPGASVKVSCKASGYTFTSYGLSWVRQAPGQGLEWMGWINTNTGNPTYAQGFTGRFVFSLDTSVSTAYLQISSLKAEDTAVYYCARKGIWGPFDYWGQGTLVTVSS VL: not shown | 16.4 µg/mL |  | 5 µg/mL | 0.00515 µg/mL |  | 
7 | CCMB04.004 (antibody, V domains shown, also called mAb 3) VH: QVQLVQSGSELKKPGASVKVSCKASGYTFTNYGVNWVRQAPGQGLEWMGWINTNTGNPTYVQGFTGRFVFSLDTSVTTAYLHISSLKAEDTAVYFCARKGIWGPFDHWGQGTLVTVSS VL: not shown | 6.46 µg/mL |  | 5.57 µg/mL | 0.0109 µg/mL |  | 
8 | CCMB20.004 (antibody, V domains shown, also called mAb 7) VH: EVQLLESGGGLVQPGESLRLSCAASGFTFNNYAMTWVRQAPGKGLDWVSSISGTSANTYYADAVKGRFTISRDNSMTTLYLQMNSLRAEDTAVYYCAKPILTLFGELPLDYWGQGTLVTVSS VL: EIVMTQSPATLSVSPGERATLSCRASQSVSSNLAWYQQKTGQAPRLLIYGASTRATAFPARFSGSGSGTEFTLTISSLQSEDFAVYYCQQYNNWPLTFGGGTKVEIK | 4.27 µg/mL | no binding |  |  |  | 

Other lines, results leading:

Row | EC50 [1] | binding result [2] | EC50 [3] | EC50 [2] | EC50 [4] | binding result [5] | Binder
9 |  |  | 1240 µg/mL |  | 0.0353 µg/mL | no binding | CCMB61.004 (antibody, V domains shown, also called mAb 11) VH: not shown VL: SSELTQDPAVSVALGQTVRITCQGDSLRSYYVSWYQQKPGQAPTLVIYGKNNRPSGIPDRFSGSSSGNTPSLTITGAQAEDEADYYCNSRDSSNHLVVFGGRTKLTVL
10 | 1.14 µg/mL | no binding |  |  |  |  | CCMB42.004 (antibody, V domains shown, also called mAb 10) VH: EVQLLESGGGLVQPGGSLRLSCAASGFTFNTYGMSWARQAPGKGLEWVSTISGSGDNTYYADSVKGRFTISRDNSKNTLYLQINSLRAEDTAVYYCAKGGLLWFGELPYPFDYWGQGTLVTVSS VL: QSALTQPASVSGSPGQSITISCTGTSSDVGGYNYVSWYQQHPGKAPKLMIYDVSNRPSGVSNRFSGSKSDNTASLTISGLQAEDEADYYCSSYISTSTLYVFGIGTKVTVL
11 |  | no binding |  |  | 0.0275 µg/mL | no binding | CCMB35.004 (antibody, V domains shown, also called mAb 9) VH: EVQLLESGGGLVQPGESLRLSCAASGLTFSDYAMNWVRQAPGKGLYWVSSISGTGGSTYYADSLKGRFTISRDNSKNTLYLQMNSLRAEDTAVYYCAKDIAVGVTAYFDHWGQGTLVTVSS VL: SSELTQDPAVSVALGQTVRITCQGDSLRTYSASWYQQKPGQAPVLVIYGKNNRPSGIPDRFSGSSSGNTASLTITGAQAEDEADYYCNSRDSRGNLLVVFGGGTKLTVL
12 | 1690 µg/mL | no binding |  |  |  |  | CCMB66.004 (antibody, V domains shown, also called mAb 12) VH: EVQLVQSGAEVKKPGESLKISCKGSGYSFTSYWIGWVRQMPGKGLEWMGIIYPGDSDTRYSPSFQGQVTISADKSISTAYLQWSSLKASDTAMYYCARGYPAPTVNDLDYWGQGTLVTVSS VL: not shown
